Assay results: US20250313644A1 (FUTUREGEN BIOPHARMACEUTICAL BEIJING, published 2025)

What was measured:
[1] = target: T1, HuTL1A mutant G124R (mutant number 4059) (human, UniProt O95150 57-251, limits assumed); experiment: ELISA on antigen mutant
T1 construct: whole entry named
T1 chain: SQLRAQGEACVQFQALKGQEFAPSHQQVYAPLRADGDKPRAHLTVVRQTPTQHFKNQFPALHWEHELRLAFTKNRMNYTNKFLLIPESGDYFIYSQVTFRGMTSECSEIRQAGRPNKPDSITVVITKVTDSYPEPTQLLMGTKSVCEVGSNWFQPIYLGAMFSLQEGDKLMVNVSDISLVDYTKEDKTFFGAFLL

[2] = target: T2, HuTL1A mutant R103A (mutant number 4057) (human, UniProt O95150 57-251, limits assumed); experiment: ELISA on antigen mutant
T2 construct: whole entry named
T2 chain: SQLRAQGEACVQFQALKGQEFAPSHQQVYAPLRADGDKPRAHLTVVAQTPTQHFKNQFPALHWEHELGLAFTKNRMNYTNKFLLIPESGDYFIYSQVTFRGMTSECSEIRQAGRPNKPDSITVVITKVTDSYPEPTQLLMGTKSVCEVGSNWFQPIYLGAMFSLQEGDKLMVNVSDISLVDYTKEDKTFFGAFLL

FASL [3] = target: T3, FASL (UniProt P48023 134-281, limits assumed); experiment: ELISA, coated FASL, Ab 25 nM
T3 sequence (looked up): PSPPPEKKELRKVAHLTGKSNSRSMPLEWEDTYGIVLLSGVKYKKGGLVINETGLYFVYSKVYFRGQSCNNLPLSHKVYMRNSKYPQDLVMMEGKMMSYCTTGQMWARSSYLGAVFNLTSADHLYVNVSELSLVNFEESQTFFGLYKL
Experimental: (§1) In this experiment, ELISA was used to assess the binding ability of monoclonal antibodies to TL1A homologous molecules. Representative members of the TNF ligand superfamily, TNFα, LT-α, LIGHT and FASL, were selected for binding testing. 1 μg/mL of TNFα, LT-α, LIGHT or FASL was coated in a microplate with a carbonate buffer solution at pH=9.6, 100 μL per well, and the microplate was incubated at 4° C. overnight. The microplate was then washed 5 times with PBST, blocked with 300 μL/well of PBS containing 1% BSA, and was incubated at room temperature for 1 hour. After washing 5 times with PBST, about 100 μL each of the M701 monoclonal antibodies and the control antibodies were added to each well, and were incubated at room temperature for 1 hour. After washing 5 times with PBST, 100 μL of HRP-anti-human Fc (Sino Biological) was added to each well, and was incubated at room temperature for 1 hour. After washing 5 times with PBST, 100 μL of colorimetric substrate TMB was added to each well, and color was developed at room temperature for 10 minutes, followed by addition of 1M sulfuric acid to terminate the reaction. OD450 nm was recorded on a microplate reader.

FASL [4] = target: T3, FASL; experiment: ELISA, coated FASL, Ab 1.563 nM
Experimental: as §1

LIGHT [5] = target: T4, LIGHT (UniProt O43557 74-240, limits assumed); experiment: ELISA, coated LIGHT, Ab 25 nM
Experimental: as §1

LIGHT [6] = target: T4, LIGHT; experiment: ELISA, coated LIGHT, Ab 0.000 nM (blank)
Experimental: as §1

LIGHT [7] = target: T4, LIGHT; experiment: ELISA, coated LIGHT, Ab 1.563 nM
Experimental: as §1

LT-α = target: T5, LT-α (UniProt P01374 35-205); experiment: ELISA, coated LT-α, Ab 6.25 nM
T5 sequence (looked up): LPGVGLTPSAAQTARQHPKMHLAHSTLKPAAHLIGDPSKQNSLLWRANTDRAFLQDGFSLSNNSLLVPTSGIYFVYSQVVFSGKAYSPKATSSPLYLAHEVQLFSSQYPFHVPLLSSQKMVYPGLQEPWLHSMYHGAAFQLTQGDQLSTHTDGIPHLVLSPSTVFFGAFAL
Experimental: as §1

TNFα = TNFα (UniProt P01375 77-233); experiment: ELISA, coated TNF-α, Ab 25 nM
Experimental: as §1

human TL1A (HuTL1A) = target: T6, human TL1A (HuTL1A) (human, UniProt O95150 57-251, limits assumed, biotin-labelled in some assays (site not stated)); experiment: DLS, antigen and antibody mixed in equal moles
T6 construct: Expressed in EXPI-293 cells and purified by Ni-NTA (His-tag); Described as a trimeric antigen; also called TL1A antigen; WT
T6 sequence: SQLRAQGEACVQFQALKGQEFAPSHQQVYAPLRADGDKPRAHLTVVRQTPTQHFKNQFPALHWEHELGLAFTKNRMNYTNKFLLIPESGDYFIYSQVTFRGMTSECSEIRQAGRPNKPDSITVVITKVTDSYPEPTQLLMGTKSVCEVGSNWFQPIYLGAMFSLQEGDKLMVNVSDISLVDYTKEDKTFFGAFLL
Experimental: 60 μM antigen and antibody was mixed in equal moles, incubated at room temperature for 30 minutes, and then the molecular size was detected using UNCLE or SEC.

FASL [8] = target: T3, FASL; experiment: ELISA, coated FASL, Ab 100 nM
Experimental: as §1

LIGHT [9] = target: T4, LIGHT; experiment: ELISA, coated LIGHT, Ab 6.25 nM
Experimental: as §1

FASL [10] = target: T3, FASL; experiment: ELISA, coated FASL, Ab 6.25 nM
Experimental: as §1

[11] = target: T7, endogenous TL1A induced in PBMC by immune complexes (UniProt O95150 72-251, limits assumed); experiment: cell-based or functional assay
T7 sequence (looked up): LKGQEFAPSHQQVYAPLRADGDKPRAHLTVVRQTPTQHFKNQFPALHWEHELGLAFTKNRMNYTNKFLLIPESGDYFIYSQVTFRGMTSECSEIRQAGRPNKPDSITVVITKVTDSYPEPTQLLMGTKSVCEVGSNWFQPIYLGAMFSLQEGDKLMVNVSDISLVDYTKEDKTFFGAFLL

T4 sequence (O43557 74-240 limits assumed): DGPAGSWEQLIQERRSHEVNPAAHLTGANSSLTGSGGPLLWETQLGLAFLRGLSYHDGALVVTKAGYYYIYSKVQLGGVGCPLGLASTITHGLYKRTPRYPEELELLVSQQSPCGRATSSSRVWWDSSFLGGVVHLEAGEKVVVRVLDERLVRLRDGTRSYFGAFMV
Chain of TNFα (P01375 77-233 limits assumed): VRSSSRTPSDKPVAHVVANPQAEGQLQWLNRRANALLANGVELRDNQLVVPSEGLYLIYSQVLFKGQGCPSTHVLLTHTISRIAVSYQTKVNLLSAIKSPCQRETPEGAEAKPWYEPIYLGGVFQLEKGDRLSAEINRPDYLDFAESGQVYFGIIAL

B1: M701-3966 (antibody, human IgG1, kappa, L234A L235A, V domains shown)
VH: ELQLQESGPGLVKPSETLSLTCAVSGVSFSDYHWAWIRQPPGKGLEWIGDINHRGHTNYNPSLKSRVTVSIDTSKNQFSLKLSSVTAADTAVYFCARDFPNFIFDYWGQGTLVTVSS
VL: DIQLTQSPGTLSLSPGERATLSCRASQSVSSYLAWYQQKPGQAPRLLIYGASKRATGIPDRFSGSGSGTDFTLTISRLEPEDFAVYYCQQYGDSPLTFGQGTKVEIKR
notes: Fc-engineered IgG1
Does B1 bind [1]?
Result: no binding

Does B1 bind [2]?
Result: no binding

What about the OD450 nm (FASL [3]) of the same binder?
The OD450 nm was 0.0662.

What about the OD450 nm (FASL [4]) of the same binder?
Its OD450 nm is 0.0522.

What about the OD450 nm (LIGHT [5]) of the same binder?
Its OD450 nm is 0.0674.

What about the OD450 nm (LIGHT [6]) of the same binder?
Its OD450 nm is 0.06.

And the OD450 nm (LIGHT [7])?
Its OD450 nm is 0.0573.

What about the OD450 nm (LT-α) of the same binder?
Its OD450 nm is 0.06.

And the OD450 nm (TNFα)?
The OD450 nm was 0.0593.

And the “Ave Z-dia (nm) of the antigen-antibody complex” value (human TL1A (HuTL1A))?
Its value is 18.6 nm.

And the OD450 nm (FASL [8])?
Its OD450 nm is 0.0914.

What about the OD450 nm (LIGHT [9]) of the same binder?
The OD450 nm was 0.0568.

And the OD450 nm (FASL [10])?
The OD450 nm was 0.0525.

B2: M701-4007 (antibody, human IgG1, kappa, L234A L235A, V domains shown)
VH: ELQLQESGPGLVKPSETLSLTCAVSGVSFSDYHWAWIRQPPGKGLEWIGDINHRGHTNYNPSLKSRVTVSIDTSKNQFSLKLSSVTAADTAVYFCARDFPNFIFDFWGQGTLVTVSS
VL: DIQLTQSPGTLSLSPGERATLSCRASQSVSTYLAWYQQKPGQAPRLLIYGASKRATGIPDRFSGSGSGTDFTLTISRLEPEDFAVYYCQQYGDSPLTFGQGTKVEIKR
notes: Fc-engineered IgG1
Which results are given for B2?
binding result [1]: no binding; binding result [2]: no binding; OD450 nm (FASL [3]): 0.0634; OD450 nm (FASL [4]): 0.06; OD450 nm (LIGHT [5]): 0.063; IC50 (read off the curve); IFN-γ of PBMC stimulated with immune complex, IL-12 and IL-18 [11]: ~0.5 nM; OD450 nm (LIGHT [6]): 0.0568; OD450 nm (LIGHT [7]): 0.0568; OD450 nm (LT-α): 0.0588; OD450 nm (TNFα): 0.0665; Ave Z-dia (nm) of the antigen-antibody complex (human TL1A (HuTL1A)): 18.7 nm; OD450 nm (FASL [8]): 0.089; OD450 nm (LIGHT [9]): 0.0542; OD450 nm (FASL [10]): 0.0523
